From paper PMC9110474

Tests used:
[1] = biological target: TOM complex (translocase of the mitochondrial outer membrane), human, endogenous core complex (human (endogenous in HeLa or U2OS)) (UniProt O96008)
[2] = biological target: TOM complex (translocase of the mitochondrial outer membrane), human, endogenous core complex (human (endogenous in HeLa or U2OS)) (UniProt O96008); test: native gel or EMSA; competition: mitochondria preincubated on ice for 10 min with 20 µg pSu9-DHFR-His, 1 mM methotrexate and 1 mM NADPH, depolarized, then import of radiolabeled PINK1; BN-PAGE, 700 kDa species quantified (clogger and TOM complex)

## pSu9-DHFR-His
[1]
  integration of radiolabeled TOM40 into the MOM of mitochondria preincubated with pSu9-DHFR, % of untreated mitochondria: 60%
[2]
  PINK1 association with the TOM complex left with pSu9-DHFR, % of control: < 40%
